Experimental data as given in patent US20130243746.

Target: recombinant human acid alpha glucosidase (rhGAA), 110 kDa precursor

B1: recombinant Aspergillus oryzae alkaline protease expressed in Yarrowia lipolytica (strains OXYY2184 and OXYY2122), mature form with linker and His tag (protein)
chain: GLTTQKSAPWGLGSISHKGQQSTDYIYDTSAGEGTYAYVVDSGVNVDHEEFEGRASKAYNAAGGQHVDSIGHGTHVSGTIAGKTYGIAKKASILSVKVFQGESSSTSVILDGFNWAANDIVSKKRTSKAAINMSLGGGYSKAFNDAVENAFEQGVLSVVAAGNENSDAGQTSPASAPDAITVAAIQKSNNRASFSNFGKVVDVFAPGQDILSAWIGSSSATNTISGTSMATPHIVGLSLYLAALENLDGPAAVTKRIKELATKDVVKDVKGSPNLLAYNGNASGGGHHHHHHHHHH
processing of the 110 kDa rhGAA precursor in culture supernatant of the co-expressing strain OXYY2122 (SDS-PAGE and immunoblot): This processing was complete; no 110 kDa form was detected | proteolysis of rhGAA to the 95 kDa form (weight:weight ratio 200:1 total protein:protease, 16 h at 30 C; SDS-PAGE): resulted in a full proteolysis to the 95 kDa product
